± gives the standard error. For some of these results: This sample holds only a part of the variants without activity.
B1: glmS ribozyme (parent)
chain: AUAAAAGCGCCAGAACUACAGAAAUGUAGUUGACGAGGAGGAGGUUUAUCGAAUUUUCGGCGGAUGCCUCCAAA

Experiments:
Settings in all cases: with glucosamine-6-phosphate
[1] = variants of: B1; assay: kcat; higher = faster cleavage; RNA array
In short: (§1)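 A hybridised Cy3 probe tracked barcoded ribozyme variants, transcribed in situ by E. coli RNA polymerase on sequenced MiSeq chips, at 37 °C. The variants received 40 μM to 10 mM glucosamine-6-phosphate in HEPES/KCl/Mg(OAc)2 buffer. kobs came from decay fits and kcat and KM from weighted Michaelis–Menten fits.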

[2] = variants of: B1; assay: self-cleavage kobs at 40 uM GlcN6P; higher = faster cleavage; RNA array
In short: as §1

[3] = variants of: B1; assay: self-cleavage kobs at 160 uM GlcN6P; higher = faster cleavage; RNA array
In short: as §1

[4] = variants of: B1; assay: self-cleavage kobs at 640 uM GlcN6P; higher = faster cleavage; RNA array
In short: as §1

[5] = variants of: B1; assay: self-cleavage kobs at 10000 uM GlcN6P; higher = faster cleavage; RNA array
In short: as §1

[6] = variants of: B1; assay: KM; higher = weaker cofactor use; RNA array
In short: as §1

[7] = variants of: B1; assay: self-cleavage kobs at 2500 uM GlcN6P; higher = faster cleavage; RNA array
In short: as §1

| Variant | kcat [1] [s⁻¹] | self-cleavage kobs at 40 uM GlcN6P [2] [s⁻¹] | self-cleavage kobs at 160 uM GlcN6P [3] [s⁻¹] | self-cleavage kobs at 640 uM GlcN6P [4] [s⁻¹] | self-cleavage kobs at 10000 uM GlcN6P [5] [s⁻¹] | KM [6] [µM] | self-cleavage kobs at 2500 uM GlcN6P [7] [s⁻¹] |
| --- | --- | --- | --- | --- | --- | --- | --- |
| AUAAAAGCGCCAGAACUACAGAAAUGUAGUUGACGAGGAGGAGGUUUAUCGAAUUUACGUCGGAUGCCUCCAAA [U57A G60U] | < 1e-05 | < 1e-05 | < 1e-05 | < 1e-05 | < 1e-05 |  |  |
| AUAAAAGCGCCAGAACUACAGAAAUGUAGUUGACGAGGAGGAGGUUUAUCGAAUUCUCGGCGGGUGCCUCCAAA [U56C A64G] | 0.000167 ± 1.1e-05 |  |  |  | 0.000131 ± 2e-05 | 2690 ± 560 | 8.52e-05 ± 2.8e-05 |
| AUAAAAGCGCCAGAACUACAGAAAUGUAGUUGACGAGGAGGAGGUUUAUCGAAUUGUCGGCGGGUGCCUCCAAA [U56G A64G] | 0.0177 ± 0.0051 | 0.000369 ± 6.8e-05 | 0.000896 ± 0.00017 | 0.00313 ± 0.00055 | 0.0156 ± 0.0037 | 2680 ± 1000 | 0.00817 ± 0.0015 |
| AUAAAAGCGCCAGAACUACAGAAAUGUAGUUGACGAGGAGGAGGUUUAUCGAAUUUGUGGCGGAUGCCUCCAAA [U57G C58U] | 2.34e-05 ± 1.1e-05 | < 1e-05 | < 1e-05 |  |  |  |  |
| AUAAAAGCGCCAGAACUACAGAAAUGUAGUUGACGAGGAGGAGGUUUAUCGAAUUAACGGCGGAUGCCUCCAAA [U56A U57A] | 0.000351 ± 3.9e-05 |  |  | 4.44e-05 ± 1.7e-05 | 0.00025 ± 4.4e-05 | 3720 ± 820 | 0.000155 ± 3.3e-05 |
| AUAAAAGCGCCAGAACUACAGAAAUGUAGUUGACGAGGAGGAGGUUUAUCGAAUUUUAGGCGGCUGCCUCCAAA [C58A A64C] | < 1e-05 | < 1e-05 |  |  |  |  |  |
| AUAAAAGCGCCAGAACUACAGAAAUGUAGUUGACGAGGAGGAGGUUUAUCGAAUUGUCGGCGGACGCCUCCAAA [U56G U65C] | 0.000622 ± 6.2e-05 |  |  |  | 0.000366 ± 0.00011 | 6800 ± 1000 | 0.000169 ± 3.3e-05 |
| AUAAAAGCGCCAGAACUACAGAAAUGUAGUUGACGAGGAGGAGGUUUAUCGAAUUUGCGGCGGAUGCGUCCAAA [U57G C68G] | 4.47e-05 ± 1.1e-05 | 2.48e-05 ± 1.2e-05 | 4.02e-05 ± 1.5e-05 | 4.72e-05 ± 1.4e-05 |  |  | 5.88e-05 ± 1.3e-05 |
| AUAAAAGCGCCAGAACUACAGAAAUGUAGUUGACGAGGAGGAGGUUUAUCGAAUUUCCGGCGGAUGUCUCCAAA [U57C C67U] | 6.51e-05 ± 8.2e-06 |  |  | 3.88e-05 ± 8.6e-06 | 6.33e-05 ± 5.1e-06 |  | 3.71e-05 ± 7.6e-06 |
| AUAAAAGCGCCAGAACUACAGAAAUGUAGUUGACGAGGAGGAGGUUUAUCGAAUUUUAGGCGGAUGUCUCCAAA [C58A C67U] | 0.000215 ± 1.7e-05 |  |  | 6.4e-05 ± 1e-05 | 0.000182 ± 1.7e-05 | 1370 ± 290 | 0.000161 ± 2e-05 |
| AUAAAAGCGCCAGAACUACAGAAAUGUAGUUGACGAGGAGGAGGUUUAUCGAAUUGUCGACGGAUGCCUCCAAA [U56G G60A] | 2.37e-05 ± 6.7e-07 | < 1e-05 |  |  | 2.25e-05 ± 1.1e-05 | 623 ± 130 |  |
| AUAAAAGCGCCAGAACUACAGAAAUGUAGUUGACGAGGAGGAGGUUUAUCGAAUUUAGGGCGGAUGCCUCCAAA [U57A C58G] | 7.04e-05 ± 3.8e-06 |  |  |  | 4.8e-05 ± 1.2e-05 | 4690 ± 580 | 2.42e-05 ± 1.1e-05 |
| AUAAAAGCGCCAGAACUACAGAAAUGUAGUUGACGAGGAGGAGGUUUAUCGAAUUGUUGGCGGAUGCCUCCAAA [U56G C58U] | 0.000147 ± 7.7e-06 |  |  |  | 9.06e-05 ± 8e-06 | 6310 ± 710 | 4.08e-05 ± 8.6e-06 |
| AUAAAAGCGCCAGAACUACAGAAAUGUAGUUGACGAGGAGGAGGUUUAUCGAAUUUACGGCGGAUGCAUCCAAA [U57A C68A] | 2.64e-05 ± 5.2e-06 |  |  |  |  |  |  |
| AUAAAAGCGCCAGAACUACAGAAAUGUAGUUGACGAGGAGGAGGUUUAUCGAAUUUGCGGCGGAUGCCUCUAAA [U57G C71U] | 6.07e-05 ± 3e-05 |  |  | 3.26e-05 ± 1.2e-05 | 4.47e-05 ± 6.6e-06 |  | 1.65e-05 ± 8e-06 |
| AUAAAAGCGCCAGAACUACAGAAAUGUAGUUGACGAGGAGGAGGUUUAUCGAAUUUACGGCGGAUACCUCCAAA [U57A G66A] | 0.000171 ± 2.8e-05 |  |  |  | 0.00012 ± 3.2e-05 | 4040 ± 1400 | 6.97e-05 ± 2.3e-05 |
| AUAAAAGCGCCAGAACUACAGAAAUGUAGUUGACGAGGAGGAGGUUUAUCGAAUUUGUGGCGGAUGCCUUCAAA [U57G C58U C70U] | 1.35e-05 ± 3.4e-06 |  | < 1e-05 |  |  |  |  |
| AUAAAAGCGCCAGAACUACAGAAAUGUAGUUGACGAGGAGGAGGUUUAUCGAAUUUUAGGCGGAUGCUUCCAAA [C58A C68U] | 0.000273 ± 5.2e-05 |  | 3.66e-05 ± 1e-05 | 6.75e-05 ± 7e-06 | 0.000251 ± 2.3e-05 | 2100 ± 790 | 0.000129 ± 1.2e-05 |
| AUAAAAGCGCCAGAACUACAGAAAUGUAGUUGACGAGGAGGAGGUUUAUCGAAUUUCCGGCGGAUGCCUUCAAA [U57C C70U] | 0.00016 ± 1.8e-05 |  | 2.63e-05 ± 8.9e-06 | 7.23e-05 ± 9.1e-06 | 0.000124 ± 2.4e-05 | 741 ± 210 | 0.000137 ± 1.3e-05 |

— the supplement of paper PMC7125110
